Data on 3 molecules can be found in paper PMC4944837 (Molecular cell, 2007).

Read-outs that look alike come from different tables or passages of the source.

Common to all, as to test: pull-down
Assay [1] concerns the target T1, GST-Rb pocket (aa 379-792) (human, UniProt P06400 379-792).
T1 sequence (looked up): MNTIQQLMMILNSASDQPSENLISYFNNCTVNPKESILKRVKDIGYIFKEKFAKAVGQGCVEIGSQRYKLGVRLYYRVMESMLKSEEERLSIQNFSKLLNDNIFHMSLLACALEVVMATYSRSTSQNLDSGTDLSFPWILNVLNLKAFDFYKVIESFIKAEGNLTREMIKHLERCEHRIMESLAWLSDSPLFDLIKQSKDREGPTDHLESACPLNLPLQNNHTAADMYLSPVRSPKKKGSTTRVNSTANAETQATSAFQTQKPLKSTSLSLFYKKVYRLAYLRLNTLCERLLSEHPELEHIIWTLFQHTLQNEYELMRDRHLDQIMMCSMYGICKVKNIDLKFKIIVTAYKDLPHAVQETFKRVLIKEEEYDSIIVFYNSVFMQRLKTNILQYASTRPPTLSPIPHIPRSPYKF

In assay [2] the target is T1, GST-Rb pocket (aa 379-792). This is another data set of the same source.
The target in assay [3] is T2, GST-Rb∆N (aa 379-928) (human, UniProt P06400 379-928).
T2 sequence (looked up): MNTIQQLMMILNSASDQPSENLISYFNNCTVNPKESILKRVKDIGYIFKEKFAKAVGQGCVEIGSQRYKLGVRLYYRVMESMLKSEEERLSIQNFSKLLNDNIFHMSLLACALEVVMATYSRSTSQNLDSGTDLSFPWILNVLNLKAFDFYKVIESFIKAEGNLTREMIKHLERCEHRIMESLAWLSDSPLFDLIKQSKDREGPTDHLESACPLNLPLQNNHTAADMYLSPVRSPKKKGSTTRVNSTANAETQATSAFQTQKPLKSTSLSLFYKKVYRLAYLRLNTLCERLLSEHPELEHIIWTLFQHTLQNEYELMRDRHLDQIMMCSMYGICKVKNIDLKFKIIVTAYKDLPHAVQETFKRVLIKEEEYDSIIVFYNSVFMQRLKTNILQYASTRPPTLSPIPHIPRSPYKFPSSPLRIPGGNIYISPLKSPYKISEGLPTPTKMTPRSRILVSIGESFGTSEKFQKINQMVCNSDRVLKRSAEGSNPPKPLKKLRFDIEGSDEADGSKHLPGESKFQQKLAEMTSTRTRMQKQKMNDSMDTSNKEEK

As for NRLTEELGCDEIIDRE (peptide, UniProt Q9Y6B2 172-187, looked up) [EID-1 LxCxE peptide (aa 172-187, LxCxE)], the binding result in assay [1] is given as “binds”.

B1: RbN (aa 40-355), Rb N-terminal domain (domain or fragment, human, UniProt P06400 40-355, looked up)
chain: EDLPLVRLEFEETEEPDFTALCQKLKIPDHVRERAWLTWEKVSSVDGVLGGYIQKKKELWGICIFIAAVDLDEMSFTFTELQKNIEISVHKFFNLLKEIDTSTKVDNAMSRLLKKYDVLFALFSKLERTCELIYLTQPSSSISTEINSALVLKVSWITFLLAKGEVLQMEDDLVISFQLMLCVLDYFIKLSPPMLLKEPYKTAVIPINGSPRTPRRGQNRSARIAKQLENDTRIIEVLCKEHECNIDEVKNVYFKNFIPFMNSLGLVTSNGLPEVENLSKRYEEIYLKNKDLDARLFLDHDKTLQTDSIDSFETQR
B1: the binding result in assay [2] and in assay [3] was “binds” in each case.

B2: Rb 40-355 ∆Ex5 (domain or fragment, human, UniProt P06400 40-355, looked up)
chain: EDLPLVRLEFEETEEPDFTALCQKLKIPDHVRERAWLTWEKVSSVDGVLGGYIQKKKELWGICIFIAAVDLDEMSFTFTELQKNIEISVHKFFNLLKEIDTSTKVDNAMSRLLKKYDVLFALFSKLERSTEINSALVLKVSWITFLLAKGEVLQMEDDLVISFQLMLCVLDYFIKLSPPMLLKEPYKTAVIPINGSPRTPRRGQNRSARIAKQLENDTRIIEVLCKEHECNIDEVKNVYFKNFIPFMNSLGLVTSNGLPEVENLSKRYEEIYLKNKDLDARLFLDHDKTLQTDSIDSFETQR
For the molecule B2, in assay [2], the binding result is listed as “binds”.
